The source of these data is the supplement of paper PMC9112550, “Optimization of the antimicrobial peptide Bac7 by deep mutational scanning” (BMC Biology, 2022).

In this data set the test system is Escherichia coli TOP10. The data set can be described thus: shrunken log2 fold change of peptide-encoding DNA abundance (4.5 h post-induction vs induction); higher = less antimicrobial activity (less host growth inhibition). The settings on record: time post-induction: 4.5 h; library: site-saturation at positions 5, 18, 19, 20.
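Further: peptides expressed intracellularly from a pBAD plasmid library in pooled LB shake-flask culture, induced with 0.3% L-arabinose, DNA abundance read by NGS, three biological replicates, DESeq2 with apeglm shrinkage.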

For the sequence RRIRFRPPRLPRPRPRPDTNPRP, the “shrunken log2 fold change” value was -0.208. As for RRIRYRPPRLPRPRPRPCKYPRP, the figure is -0.627; as for RRIRTRPPRLPRPRPRPNTMPRP, -0.675; as for RRIRCRPPRLPRPRPRPYSCPRP, -0.833. On to RRIRWRPPRLPRPRPRPLLPPRP, for which the “shrunken log2 fold change” value was 0.676. For the sequence RRIRNRPPRLPRPRPRPQGLPRP, the “shrunken log2 fold change” value was -0.109. For the sequence RRIRKRPPRLPRPRPRPSMVPRP, the “shrunken log2 fold change” value was -0.13.

As to RRIRGRPPRLPRPRPRPFAHPRP, the “shrunken log2 fold change” value was determined as 0.162. On to RRIRWRPPRLPRPRPRPAPWPRP, for which the “shrunken log2 fold change” value stood at 0.319. For RRIRGRPPRLPRPRPRPHKWPRP the value was 0.183; for RRIRGRPPRLPRPRPRPNIHPRP, 0.0679. For RRIRPRPPRLPRPRPRPSETPRP, the “shrunken log2 fold change” value is -0.182.

In the case of RRIRKRPPRLPRPRPRPASKPRP, the “shrunken log2 fold change” value is -0.25. For RRIRNRPPRLPRPRPRPVKPPRP the value was 0.0644; for RRIRIRPPRLPRPRPRPRQEPRP, -0.131; for RRIRERPPRLPRPRPRPNAHPRP, 0.0249.

With RRIRHRPPRLPRPRPRPGQYPRP, the “shrunken log2 fold change” value is -0.0767. As for RRIRPRPPRLPRPRPRPYLKPRP, the figure is -0.259; as for RRIRLRPPRLPRPRPRPWHPPRP, -0.0174; as for RRIRMRPPRLPRPRPRPNMFPRP, 0.0213. As for RRIRLRPPRLPRPRPRPTEKPRP, the figure is -0.0343. As for RRIRHRPPRLPRPRPRPSSRPRP, the figure is -0.175; as for RRIRKRPPRLPRPRPRPDTLPRP, 0.0227; as for RRIRHRPPRLPRPRPRPNMPPRP, 0.0144. In the case of RRIRCRPPRLPRPRPRPKNCPRP, the “shrunken log2 fold change” value amounted to 0.0619. For RRIRRRPPRLPRPRPRPPSLPRP the value was 0.522. Turning to RRIRRRPPRLPRPRPRPMGSPRP, the “shrunken log2 fold change” value was -0.0322. As for RRIRIRPPRLPRPRPRPLHHPRP, the figure is -0.148.

With RRIRDRPPRLPRPRPRPSCQPRP, the “shrunken log2 fold change” value is 0.17.

Take RRIRMRPPRLPRPRPRPECNPRP: the “shrunken log2 fold change” value came to 0.0477. In the case of RRIRCRPPRLPRPRPRPCSQPRP, the “shrunken log2 fold change” value was -0.256.

As for RRIRNRPPRLPRPRPRPTFNPRP, the “shrunken log2 fold change” value is -0.506. As for RRIRMRPPRLPRPRPRPWGIPRP, the figure is 0.0388; as for RRIRHRPPRLPRPRPRPAIQPRP, 0.0477; as for RRIRPRPPRLPRPRPRPMCSPRP, -0.152. RRIRTRPPRLPRPRPRPRVTPRP: the “shrunken log2 fold change” value was -0.163. As for RRIRIRPPRLPRPRPRPFMIPRP, the figure is -0.73.

Turning to RRIRLRPPRLPRPRPRPTSLPRP, the “shrunken log2 fold change” value is -0.112.

On to RRIRQRPPRLPRPRPRPAQVPRP, for which the “shrunken log2 fold change” value was found to be 0.0263. In the case of RRIRNRPPRLPRPRPRPYKHPRP, the “shrunken log2 fold change” value is -0.819. As for RRIRARPPRLPRPRPRPKPQPRP, the figure is 0.533. In the case of RRIRQRPPRLPRPRPRPHTEPRP, the “shrunken log2 fold change” value was determined as 0.0633. For RRIRYRPPRLPRPRPRPGSIPRP the value was -0.606.

Regarding RRIRFRPPRLPRPRPRPEEAPRP, the “shrunken log2 fold change” value stood at 0.253.

Regarding RRIRHRPPRLPRPRPRPSIPPRP, the “shrunken log2 fold change” value was -0.868.

Regarding RRIRNRPPRLPRPRPRPKECPRP, the “shrunken log2 fold change” value came out at 0.00801. With RRIRTRPPRLPRPRPRPFFRPRP, the “shrunken log2 fold change” value worked out at 0.234.

RRIRNRPPRLPRPRPRPTIVPRP: the “shrunken log2 fold change” value was -0.0363. For RRIRPRPPRLPRPRPRPYKAPRP the value was -0.183; for RRIRSRPPRLPRPRPRPNQQPRP, 0.121; for RRIRERPPRLPRPRPRPFFMPRP, -0.0808. On to RRIRLRPPRLPRPRPRPPAHPRP, for which the “shrunken log2 fold change” value stood at 0.445. For RRIRGRPPRLPRPRPRPNITPRP the value was 0.315; for RRIRYRPPRLPRPRPRPNKCPRP, -0.269; for RRIRTRPPRLPRPRPRPWRFPRP, -0.0156. As to RRIRCRPPRLPRPRPRPLAFPRP, the “shrunken log2 fold change” value was -0.165.

As for RRIRYRPPRLPRPRPRPCASPRP, the “shrunken log2 fold change” value was -0.12. In the case of RRIRCRPPRLPRPRPRPTLRPRP, the “shrunken log2 fold change” value came to 0.15. Regarding RRIRLRPPRLPRPRPRPESWPRP, the “shrunken log2 fold change” value was 0.162.

For RRIRGRPPRLPRPRPRPRHCPRP, the “shrunken log2 fold change” value was 0.764. As for RRIRFRPPRLPRPRPRPSCHPRP, the figure is -0.495; as for RRIRIRPPRLPRPRPRPIRGPRP, -0.0199; as for RRIRIRPPRLPRPRPRPCCRPRP, -0.322. As for RRIRFRPPRLPRPRPRPAVMPRP, the figure is 0.248.

On to RRIRPRPPRLPRPRPRPTMLPRP, for which the “shrunken log2 fold change” value is -0.114. As for RRIRNRPPRLPRPRPRPKNCPRP, the figure is -0.552; as for RRIRMRPPRLPRPRPRPAKGPRP, 0.271. RRIRVRPPRLPRPRPRPIVKPRP: the “shrunken log2 fold change” value was -0.0955. Take RRIRYRPPRLPRPRPRPCFGPRP: the “shrunken log2 fold change” value was -0.0967. For RRIRDRPPRLPRPRPRPGNSPRP the value was -0.0582; for RRIRARPPRLPRPRPRPKVMPRP, 0.176.

On to RRIRQRPPRLPRPRPRPQVPPRP, for which the “shrunken log2 fold change” value was -0.148. Regarding RRIRIRPPRLPRPRPRPEFSPRP, the “shrunken log2 fold change” value came out at 0.00834.

Take RRIRDRPPRLPRPRPRPMINPRP: the “shrunken log2 fold change” value is 0.0491. As for RRIRFRPPRLPRPRPRPIKIPRP, the figure is -0.539; as for RRIRPRPPRLPRPRPRPTSPPRP, -0.0252. As for RRIRHRPPRLPRPRPRPPGRPRP, the figure is 0.593.

On to RRIRHRPPRLPRPRPRPQSQPRP, for which the “shrunken log2 fold change” value is -0.127. As for RRIRRRPPRLPRPRPRPIASPRP, the figure is 0.432; as for RRIRKRPPRLPRPRPRPQIPPRP, -0.0346; as for RRIRDRPPRLPRPRPRPLVKPRP, 0.0947. For RRIRWRPPRLPRPRPRPPDWPRP the value was 1.19. RRIRFRPPRLPRPRPRPVMLPRP: the “shrunken log2 fold change” value was -0.412. As for RRIRARPPRLPRPRPRPVFLPRP, the figure is 1.14; as for RRIRIRPPRLPRPRPRPNQHPRP, -0.337; as for RRIRIRPPRLPRPRPRPTDDPRP, -0.217. As for RRIRVRPPRLPRPRPRPLWTPRP, the figure is 0.0846; as for RRIRYRPPRLPRPRPRPYKQPRP, -0.025; as for RRIRYRPPRLPRPRPRPWCHPRP, -0.191. As for RRIRNRPPRLPRPRPRPNERPRP, the figure is 0.0308; as for RRIRCRPPRLPRPRPRPTSTPRP, -0.165; as for RRIRYRPPRLPRPRPRPRLTPRP, -0.0803. RRIRARPPRLPRPRPRPGVDPRP: the “shrunken log2 fold change” value stood at 0.664. As for RRIRRRPPRLPRPRPRPGETPRP, the figure is 0.309. Take RRIRIRPPRLPRPRPRPMISPRP: the “shrunken log2 fold change” value is -0.00209.

RRIRGRPPRLPRPRPRPPLTPRP: the “shrunken log2 fold change” value was 0.971. On to RRIRDRPPRLPRPRPRPQFMPRP, for which the “shrunken log2 fold change” value amounted to 1.04. For RRIRYRPPRLPRPRPRPQYRPRP, the “shrunken log2 fold change” value was -0.148. For RRIRSRPPRLPRPRPRPARFPRP the value was 0.181; for RRIRHRPPRLPRPRPRPAMQPRP, 0.325. As for RRIRRRPPRLPRPRPRPHARPRP, the figure is 0.586.

Turning to RRIRPRPPRLPRPRPRPDIWPRP, the “shrunken log2 fold change” value came to 0.144.

In the case of RRIRKRPPRLPRPRPRPFAGPRP, the “shrunken log2 fold change” value turned out to be 0.191. As for RRIRPRPPRLPRPRPRPGQSPRP, the figure is 0.421; as for RRIRRRPPRLPRPRPRPFSNPRP, -0.0243.

For the sequence RRIRQRPPRLPRPRPRPRQWPRP, the “shrunken log2 fold change” value turned out to be 0.254. Consider RRIRQRPPRLPRPRPRPRSWPRP, for which the “shrunken log2 fold change” value was 0.681.

For the sequence RRIRNRPPRLPRPRPRPQKAPRP, the “shrunken log2 fold change” value was -0.0017.

RRIRDRPPRLPRPRPRPPYGPRP: the “shrunken log2 fold change” value is -0.0609. As for RRIRWRPPRLPRPRPRPTWRPRP, the figure is 0.609; as for RRIRGRPPRLPRPRPRPGSHPRP, 0.12; as for RRIRRRPPRLPRPRPRPGEAPRP, 0.752. For RRIRRRPPRLPRPRPRPTRKPRP the value was 0.498; for RRIRERPPRLPRPRPRPPMIPRP, -0.0526. For the sequence RRIRWRPPRLPRPRPRPYEWPRP, the “shrunken log2 fold change” value stood at 0.0229. For the sequence RRIRERPPRLPRPRPRPLPAPRP, the “shrunken log2 fold change” value was 0.065.

As to RRIRDRPPRLPRPRPRPHIVPRP, the “shrunken log2 fold change” value was -0.146. For RRIRRRPPRLPRPRPRPWACPRP the value was 0.0634. As for RRIRCRPPRLPRPRPRPTALPRP, the “shrunken log2 fold change” value came out at 0.216. Take RRIRCRPPRLPRPRPRPVDFPRP: the “shrunken log2 fold change” value was -0.252.

Turning to RRIRNRPPRLPRPRPRPSWRPRP, the “shrunken log2 fold change” value was determined as 0.0128.

With RRIRLRPPRLPRPRPRPHQAPRP, the “shrunken log2 fold change” value was -0.216. RRIRHRPPRLPRPRPRPQQYPRP: the “shrunken log2 fold change” value was -0.706. RRIRSRPPRLPRPRPRPYDGPRP: the “shrunken log2 fold change” value was -0.203.

On to RRIRTRPPRLPRPRPRPIQSPRP, for which the “shrunken log2 fold change” value was -0.0351.
